Laboratory results taken from patent US20240117018A1.

Experiments:
Test in all cases: cell-based or functional assay
[1] = molecular target: HIV-1 Env of pseudovirus BJOX028000.10.3 (HIV-1)
[2] = molecular target: HIV-1 Env of pseudovirus 6952.v1.c20 (HIV-1)
[3] = molecular target: HIV-1 Env of pseudovirus 0815.v3.c3 (HIV-1)
[4] = molecular target: HIV-1 Env of pseudovirus 3301.v1.c24 (HIV-1)
[5] = molecular target: HIV-1 Env of pseudovirus T251-18 (HIV-1)
[6] = molecular target: HIV-1 Env of pseudovirus R1166.c01 (HIV-1)
[7] = molecular target: HIV-1 Env of pseudovirus 3103.v3.c10 (HIV-1)
[8] = molecular target: HIV-1 Env of pseudovirus R3265.c06 (HIV-1)
[9] = molecular target: HIV-1 Env of pseudovirus T255-34 (HIV-1)
[10] = molecular target: HIV-1 Env of pseudovirus C1080.c03 (HIV-1)
[11] = molecular target: HIV-1 Env of pseudovirus P0402_c2_11 (HIV-1)
[12] = molecular target: HIV-1 Env of pseudovirus R2184.c04 (HIV-1)
[13] = molecular target: HIV-1 Env of pseudovirus 89-F1_2_25 (HIV-1)
[14] = molecular target: HIV-1 Env of pseudovirus X1254_c3 (HIV-1)
[15] = molecular target: HIV-1 Env of pseudovirus BJOX025000.01.1 (HIV-1)
[16] = molecular target: HIV-1 Env of pseudovirus X2088_c9 (HIV-1)
[17] = molecular target: HIV-1 Env of pseudovirus BJOX010000.06.2 (HIV-1)
[18] = molecular target: HIV-1 Env of pseudovirus C4118.c09 (HIV-1)
[19] = molecular target: HIV-1 Env of pseudovirus C3347.c11 (HIV-1)
[20] = molecular target: HIV-1 Env of pseudovirus BJOX009000.02.4 (HIV-1)
[21] = molecular target: HIV-1 Env of pseudovirus 3016.v5.c45 (HIV-1)
[22] = molecular target: HIV-1 Env of pseudovirus P1981_C5_3 (HIV-1)
[23] = molecular target: HIV-1 Env of pseudovirus 231966.c02 (HIV-1)
[24] = molecular target: HIV-1 Env of pseudovirus X1193_c1 (HIV-1)
[25] = molecular target: HIV-1 Env of pseudovirus A07412M1.vrc12 (HIV-1)
[26] = molecular target: HIV-1 Env of pseudovirus 6545.v4.c1 (HIV-1)
[27] = molecular target: HIV-1 Env of pseudovirus 6540.v4.c1 (HIV-1)
[28] = molecular target: HIV-1 Env of pseudovirus 6041.v3.c23 (HIV-1)
[29] = molecular target: HIV-1 Env of pseudovirus 231965.c01 (HIV-1)
[30] = molecular target: HIV-1 Env of pseudovirus X2131_C1_B5 (HIV-1)
[31] = molecular target: HIV-1 Env of pseudovirus 211-9 (HIV-1)
[32] = molecular target: HIV-1 Env of pseudovirus 620345.c01 (HIV-1)
[33] = molecular target: HIV-1 Env of pseudovirus T278-50 (HIV-1)

Substance: PG9 (antibody)
- IC50 neutralization (TZM.bl) [1]: 1.1 µg/mL
- IC80 neutralization (TZM.bl) [1]: 21.5 µg/mL
- IC50 neutralization (TZM.bl) [2]: > 50 µg/mL
- IC80 neutralization (TZM.bl) [2]: > 50 µg/mL
- IC50 neutralization (TZM.bl) [3]: > 50 µg/mL
- IC80 neutralization (TZM.bl) [3]: > 50 µg/mL
- IC50 neutralization (TZM.bl) [4]: 0.216 µg/mL
- IC80 neutralization (TZM.bl) [4]: 0.756 µg/mL
- IC50 neutralization (TZM.bl) [5]: > 50 µg/mL
- IC80 neutralization (TZM.bl) [5]: > 50 µg/mL
- IC50 neutralization (TZM.bl) [6]: 0.736 µg/mL
- IC80 neutralization (TZM.bl) [6]: 2.88 µg/mL
- IC50 neutralization (TZM.bl) [7]: 28 µg/mL
- IC80 neutralization (TZM.bl) [7]: > 50 µg/mL
- IC50 neutralization (TZM.bl) [8]: 0.163 µg/mL
- IC80 neutralization (TZM.bl) [8]: 0.535 µg/mL
- IC50 neutralization (TZM.bl) [9]: 0.023 µg/mL
- IC80 neutralization (TZM.bl) [9]: 0.134 µg/mL
- IC50 neutralization (TZM.bl) [10]: 0.004 µg/mL
- IC80 neutralization (TZM.bl) [10]: 0.013 µg/mL
- IC50 neutralization (TZM.bl) [11]: 0.296 µg/mL
- IC80 neutralization (TZM.bl) [11]: 2.37 µg/mL
- IC50 neutralization (TZM.bl) [12]: 0.255 µg/mL
- IC80 neutralization (TZM.bl) [12]: 1.24 µg/mL
- IC50 neutralization (TZM.bl) [13]: 0.668 µg/mL
- IC80 neutralization (TZM.bl) [13]: 10.1 µg/mL
- IC50 neutralization (TZM.bl) [14]: 0.065 µg/mL
- IC80 neutralization (TZM.bl) [14]: 0.304 µg/mL
- IC50 neutralization (TZM.bl) [15]: 0.144 µg/mL
- IC80 neutralization (TZM.bl) [15]: 0.335 µg/mL
- IC50 neutralization (TZM.bl) [16]: > 50 µg/mL
- IC80 neutralization (TZM.bl) [16]: > 50 µg/mL
- IC50 neutralization (TZM.bl) [17]: 0.154 µg/mL
- IC80 neutralization (TZM.bl) [17]: 0.74 µg/mL
- IC50 neutralization (TZM.bl) [18]: 0.068 µg/mL
- IC80 neutralization (TZM.bl) [18]: 0.2 µg/mL
- IC50 neutralization (TZM.bl) [19]: 0.032 µg/mL
- IC80 neutralization (TZM.bl) [19]: 0.113 µg/mL
- IC50 neutralization (TZM.bl) [20]: 1.73 µg/mL
- IC80 neutralization (TZM.bl) [20]: 8.21 µg/mL
- IC50 neutralization (TZM.bl) [21]: 2.46 µg/mL
- IC80 neutralization (TZM.bl) [21]: > 50 µg/mL
- IC50 neutralization (TZM.bl) [22]: 0.258 µg/mL
- IC80 neutralization (TZM.bl) [22]: 2.51 µg/mL
- IC50 neutralization (TZM.bl) [23]: 0.075 µg/mL
- IC80 neutralization (TZM.bl) [23]: 0.257 µg/mL
- IC50 neutralization (TZM.bl) [24]: 0.105 µg/mL
- IC80 neutralization (TZM.bl) [24]: 0.304 µg/mL
- IC50 neutralization (TZM.bl) [25]: 0.697 µg/mL
- IC80 neutralization (TZM.bl) [25]: 7.96 µg/mL
- IC50 neutralization (TZM.bl) [26]: 0.099 µg/mL
- IC80 neutralization (TZM.bl) [26]: 0.351 µg/mL
- IC50 neutralization (TZM.bl) [27]: 0.07 µg/mL
- IC80 neutralization (TZM.bl) [27]: 0.253 µg/mL
- IC50 neutralization (TZM.bl) [28]: 0.244 µg/mL
- IC80 neutralization (TZM.bl) [28]: 3.64 µg/mL
- IC50 neutralization (TZM.bl) [29]: 1.28 µg/mL
- IC80 neutralization (TZM.bl) [29]: 48 µg/mL
- IC50 neutralization (TZM.bl) [30]: 0.084 µg/mL
- IC80 neutralization (TZM.bl) [30]: 0.286 µg/mL
- IC50 neutralization (TZM.bl) [31]: 0.049 µg/mL
- IC80 neutralization (TZM.bl) [31]: 0.243 µg/mL
- IC50 neutralization (TZM.bl) [32]: 1.33 µg/mL
- IC80 neutralization (TZM.bl) [32]: > 50 µg/mL
- IC50 neutralization (TZM.bl) [33]: 0.393 µg/mL
- IC80 neutralization (TZM.bl) [33]: 3.19 µg/mL
